Reference: patent US7759464

B1: IGN311 wt. (antibody, V domains shown)
VH: EVQLLESGGGLVQPGGSLRLSCAASGFTFSDYYMYWVRQAPEKRLEWVAYISNGGGSSHYVDSVKGRFTISRDNSKNTLYLQMNSLRAEDTALYHCARGMDYGAWFAYWGQGTLVTVSS
VL: DIVMTQSPLSLPVTPGEPASISCRSSQSIVHSNGNTYLEWYLQKPGQSPQLLISKVSNRFSGVPDRFSGSGSGTDFTLKISRVEAEDVGVYYCFQGSHVPFTFGQGTKLEIK
B2: IGN312 Glyco I (antibody, V domains shown)
VH: B1 VH
VL: B1 VL
modifications: bi-sected hybrid type N-glycosylation pattern in the Fc region (constant part of the heavy chain, not in this VH piece)

What was measured:
[1] = target: monoclonal anti-idiotypic antibody MMA383; experiment: sandwich ELISA on wells coated with anti-idiotypic antibody MMA383; evaluated at EC50, normalized on IGN311 wt.
[2] = target: monoclonal anti-idiotypic antibody MMA383; experiment: sandwich ELISA on wells coated with anti-idiotypic antibody MMA383, detected with anti-human IgG+A+M peroxidase

Row | Binder | % (binding activity normalized on IGN311 wt.) [1] [%] | Bottom (four parameter sigmoid fit) [2] | EC50 [2] [µg/mL] | Log EC50 [2] | Top (four parameter sigmoid fit) [2]
1 | B1 | 100 | 96.1 | 0.0638 | 1.8 log(ng/ml) | 2060
2 | B2 | 108 | 77 | 0.0688 | 1.84 log(ng/ml) | 2100
